# Values quoted from earlier work as cited in paper PMC6451932.
# Target: fibrinogen β peptide (Fgβ) (Homo sapiens) (UniProt P02675)
substance,measurement,value
SdrG (from UniProt Q9KI13),Kd,300 nM
